{"source": "paper PMC6517402", "about": "(Scientific Reports, 2019)", "proteins": {"B1": {"name": "ORF212 tailspike protein (TSP3) of E. coli O157:H7 phage CBA120 (enzyme, UniProt G3M191 1-627, looked up)", "chain": "MISQFNQPRGSTSIEVNKQSIARNFGVKEDEVIYFTAGIDLSGFKVIYDESTQRAYSLPFGIVSGTTAISLDERAILTHSAGSVDLGELAVSREEYVTLPGSFNFGHTINVKNELLVHDDKKYRWDGSLPKVVAAGSTPDSSGGVGLGAWLSVGDAALRAELNTKVSDGTFPATIKYKYGLPSVIDGAIYRTVQDKLDDFVFLEDFGGKDDAGSTDNSIAFRKAFASGARKIRLRGSGVYGMATRDIELPAKYEIIGNAKNPEIKYLGTDTSFTMFTLTGSGPASNQWKQGGMFRDLIISSDVKINWMLGRHVQNLDYDRVFFYNSATVLNNYHYVNFTRCERWGSAFIGRADLNTIQFISESPKFHLCFSSGSPIDVWDTADLAITKCTMFAGDYAVRTRVTQKQVTAPDLFAGYPVLITCSVFDAVRGHAWDLEGSVYSTITGNLVSAGRDTNSHGAYIKGGRSLSLTGNVFTYCGNYGLVLEDVQQSGFVGNVFNGNKTGGLGTLACKDLSIVGGSMGTTYVRGGYYTQPVGYSDISSNSTGILLSGVAFDEALTTKVYLDTSITTRNKVINCSGVPDTIARGSTANRPANPQASYQYYDTTLGIPIWWNSVSGTWKNAAGADV", "notes": "also called CBA120 TSP3; wild-type TSP3"}}, "biological_target": "the molecule itself", "assay": "crystal structure; X-ray, 1.85 Å, SAD phasing with SeMet protein, then molecular replacement into the wild-type crystal; three molecules in the asymmetric unit", "data": [{"protein": "B1", "values": [{"measurement": "stoichiometry N", "value": 3}]}]}
